In US20240100134:

Assays:
[1] = target: T1, recombinant human plasminogen (not fused to Fc, wild-type)
T1 chain: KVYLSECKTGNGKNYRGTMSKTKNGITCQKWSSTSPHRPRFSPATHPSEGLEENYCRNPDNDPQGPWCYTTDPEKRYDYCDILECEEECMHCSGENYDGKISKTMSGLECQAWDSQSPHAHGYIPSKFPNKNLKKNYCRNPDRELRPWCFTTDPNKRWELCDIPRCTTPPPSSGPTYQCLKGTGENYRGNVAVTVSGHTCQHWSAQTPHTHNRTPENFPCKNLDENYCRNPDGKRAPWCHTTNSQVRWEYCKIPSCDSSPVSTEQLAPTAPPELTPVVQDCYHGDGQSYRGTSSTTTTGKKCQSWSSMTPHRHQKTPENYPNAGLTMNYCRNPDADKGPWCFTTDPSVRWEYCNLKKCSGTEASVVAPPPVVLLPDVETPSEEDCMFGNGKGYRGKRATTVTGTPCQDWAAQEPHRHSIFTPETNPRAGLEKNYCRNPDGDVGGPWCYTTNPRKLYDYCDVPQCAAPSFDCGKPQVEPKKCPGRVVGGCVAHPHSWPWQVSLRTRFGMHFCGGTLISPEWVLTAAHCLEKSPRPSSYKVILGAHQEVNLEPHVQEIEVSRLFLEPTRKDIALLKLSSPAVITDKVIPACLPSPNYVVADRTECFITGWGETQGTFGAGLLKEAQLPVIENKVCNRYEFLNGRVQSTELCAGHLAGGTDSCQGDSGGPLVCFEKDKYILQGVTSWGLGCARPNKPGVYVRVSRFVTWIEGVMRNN

[2] = target: recombinant plasminogen-linker-Fc fusion (human plasminogen, QA linker GQAGQAS, Fc)

B1: tissue-type plasminogen activator (protein)
chain: SYQVICRDEKTQMIYQQHQSWLRPVLRSNRVEYCWCNSGRAQCHSVPVKSCSEPRCFNGGTCQQALYFSDFVCQCPEGFAGKCCEIDTRATCYEDQGISYRGTWSTAESGAECTNWNSSALAQKPYSGRRPDAIRLGLGNHNYCRNPDRDSKPWCYVFKAGKYSSEFCSTPACSEGNSDCYFGNGSAYRGTHSLTESGASCLPWNSMILIGKVYTAQNPSAQALGLGKHNYCRNPDGDAKPWCHVLKNRRLTWEYCDVPSCSTCGLRQYSQPQFRIKGGLFADIASHPWQAAIFAKHRRSPGERFLCGGILISSCWILSAAHCFQERFPPHHLTVILGRTYRVVPGEEEQKFEVEKYIVHKEFDDDTYDNDIALLQLKSDSSRCAQESSVVRTVCLPPADLQLPDWTECELSGYGKHEALSPFYSERLKEAHVRLYPSSRCTSQHLLNRTVTDNMLCAGDTRSGGPQANLHDACQGDSGGPLVCLNDGRMTLVGIISWGLGCGQKDVPGVYTKVTNYLDWIRDNMRP
Michelis-Menten analysis of activation (KM and Vmax), 10 mM EACA [1]: the kinetics of rPlg and rPlg-Fc activation are similar (as indicated by the KM and Vmax)
activation measured by the hydrolysis of plasmin fluorogenic substrate H-Ala-Phe-Lys-AMC [1]: In the presence of tPA or uPA, comparable hydrolytic activity for rPlg and rPlg-Fc is observed
Michelis-Menten analysis of activation (KM and Vmax), 10 mM EACA [2]: the kinetics of rPlg and rPlg-Fc activation are similar (as indicated by the KM and Vmax)
activation measured by the hydrolysis of plasmin fluorogenic substrate H-Ala-Phe-Lys-AMC [2]: In the presence of tPA or uPA, comparable hydrolytic activity for rPlg and rPlg-Fc is observed
